# Entries after “also recorded” stand apart in the source; their conditions may differ.
# B1: NAMPT402-491: Human NAMPT cytokine finger, residues 402-491 of full length NAMPT, SEQ ID NO: 1 (protein, listed as Homo sapiens)
# chain: SYVVTNGLGINVFKDPVADPNKRSKKGRLSLHRTPAGNFVTLEEGKGDLEEYGQDLLHTVFKNGKVTKSYSFDEIRKNAQLNIELEAAHH
# Columns and labels:
# [1] = test system: C2C12 murine myoblast cells; experiment: C2C12 cell proliferation, CyQuant Proliferation Assay kit; type: cell-based, mouse; details: 48 hours
# Experimental: FIG. 7. Human NAMPT variants stimulate muscle progenitor proliferation. C2C12 mouse myoblasts were treated with 20 nM full length NAMPT (NAMPT) or NAMPT variants for (NAMPTxxx-xxx, where xxx are amino acid numbers) 48 hours. Quantification of cell proliferation was performed using CyQuant Proliferation Assay kit. […] Box and whiskers denote median with minimum and maximum values. n=4-5 independent experiments per protein. Statistical significance is indicated as exact p-value. […] Significance between conditions were analysed by one-way ANOVA with Tukey post-hoc test.
# Human NAMPTcif (hNAMPTcif) and truncated variants of hNAMPTcif were designed by progressively removing N-terminal regions containing positively charged amino acids. Four truncations were produced and numbered T1 to T4. Recombinant protein was produced using a bacterial expression system. hNAMPTcif variants were purified by FPLC using His-tag affinity purification. Cell proliferation assays were performed using C2C12 murine myoblast cells treated with purified recombinant hNAMPTcif variants, as well as full length NAMPT. Cells were treated with 10 nM of recombinant protein for 48 hours in DMEM supplemented with 2% foetal bovine serum at 37° C., 5% CO2. PBS treatment was used as a negative control. 10% foetal bovine serum was used as positive control. Quantification of proliferation was performed using commercially-available CyQuant Proliferation Assay kit (Thermo Fisher Scientific) according to manufacturer's instructions and read using a Synergy H1 plate reader (BioTek). Data were presented as percentage increase versus.
# The heparin-binding sequence of placenta growth factor 2 (PIGF2) was fused to the N-terminus of NAMPTcif and produced using a bacterial expression system. PIGF-NAMPTcif was purified by FPLC using His-tag affinity purification followed by size exclusion chromatography. Cell proliferation assays were performed using C2C12 murine myoblast cells treated with purified recombinant NAMPTcif and full length NAMPT. Cells were treated with 2 nM, 10 nM and 20 nM concentrations of recombinant protein for 48 hours in DMEM supplemented with 2% foetal bovine serum at 37° C., 5% CO2. PBS treatment was used as a negative control. 10% foetal bovine serum was used as positive control. Quantification of proliferation was performed using commercially-available CyQuant Proliferation Assay kit (Thermo Fisher Scientific) according to manufacturer's instructions and read using a Synergy H1 plate reader (BioTek). Data were presented as percentage increase versus negative control. A two-tailed unpaired t-test was used to determine statistical significance.
# [2] = test system: Human primary satellite cells; experiment: Human primary satellite cell proliferation, CyQuant; type: cell-based; details: 20 nM; 48 hours; media with IGF-1 and FGF-2
# Experimental: (§1) FIG. 8. Human NAMPT variants stimulate human satellite cell proliferation. Human primary satellite cells were treated with 20 nM full length NAMPT (NAMPT) or NAMPT variants (NAMPTxxx-xxx, where xxx are amino acid numbers) for 48 hours. The media contained the growth factors IGF-1 and FGF-2 as well. Quantification of cell proliferation was performed using CyQuant Proliferation Assay kit. […] Treatment with 20% FBS was used as a positive control. Box and whiskers denote median with minimum and maximum values. n=6-10 independent experiments per protein. Statistical significance is indicated as p-value and determined by one-sample t-test.
# The inventors next sought to compare the activity of full length NAMPT, NAMPT402-491 and NAMPT422-491 on human satellite cell proliferation. Human primary satellite cells were treated with 20 nM full length NAMPT (NAMPT) or NAMPT402-491 and NAMPT422-491 for 48 hours.
# recombinant mouse CCR5 = molecular target: T1, recombinant mouse CCR5 (Mus musculus, UniProt P51682); experiment: NAMPT competitive binding to CCR5 (ELISA)
# T1 construct: purchased MyBioSource
# T1 sequence (P51682 whole entry): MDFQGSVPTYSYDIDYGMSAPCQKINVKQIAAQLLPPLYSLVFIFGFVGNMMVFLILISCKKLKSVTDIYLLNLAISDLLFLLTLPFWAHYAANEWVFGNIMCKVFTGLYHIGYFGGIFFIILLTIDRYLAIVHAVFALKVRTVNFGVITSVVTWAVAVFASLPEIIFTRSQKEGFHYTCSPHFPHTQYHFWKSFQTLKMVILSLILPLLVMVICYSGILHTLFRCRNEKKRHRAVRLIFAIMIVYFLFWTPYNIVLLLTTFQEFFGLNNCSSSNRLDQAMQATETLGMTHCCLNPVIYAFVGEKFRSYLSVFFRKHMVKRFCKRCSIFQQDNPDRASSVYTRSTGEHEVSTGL
# Experimental: hrNAMPT competitive binding to mrCCR5: ELISA plates (Medium binding, Greiner Bio-One) were coated with 1% BSA or 20 nM of recombinant mouse CCR5 (MyBioSource) in PBS overnight at 4° C. Then, wells were blocked for 1 h at room temperature with 1% BSA in PBS containing 0.05% Tween-20 (PBS-T). Wells were washed 3 times with PBS-T and further incubated with hNAMPTcif at increasing concentration (0 nM to 100 nM) for 1 h in PBS-T with 0.1% BSA containing 100 nM hrNAMPT (1) (Peprotech). Bound hrNAMPT (1) molecules were detected using a biotinylated antibody for NAMPT and HRP-streptavidin (Human PBEF/Visfatin DuoSet ELISA, R&D Systems). Signals obtained on BSA-coated wells were used to remove non-specific binding for each hrNAMPT concentrations to obtain specific binding values. Specific binding data were fitted by non-linear regression with Prism 7 to obtain the half maximal inhibitory concentration (IC50) of hNAMPTnif using A450nm=A450nmMin+(A450nmMax−A450nmMin)/(1+10^(X-LogIC50)).
# TLR4 = molecular target: T2, TLR4 (Homo sapiens, UniProt O00206); experiment: TLR4 signalling assay in HEK-Blue TLR4 reporter cells; type: cell-based; details: 19 nM; 24 hours; plus 5 ug/ml polymyxin B; listed as NAMPTcif
# T2 construct: host or cells: HEK-Blue TLR4 reporter cell line
# T2 sequence (O00206 24-839): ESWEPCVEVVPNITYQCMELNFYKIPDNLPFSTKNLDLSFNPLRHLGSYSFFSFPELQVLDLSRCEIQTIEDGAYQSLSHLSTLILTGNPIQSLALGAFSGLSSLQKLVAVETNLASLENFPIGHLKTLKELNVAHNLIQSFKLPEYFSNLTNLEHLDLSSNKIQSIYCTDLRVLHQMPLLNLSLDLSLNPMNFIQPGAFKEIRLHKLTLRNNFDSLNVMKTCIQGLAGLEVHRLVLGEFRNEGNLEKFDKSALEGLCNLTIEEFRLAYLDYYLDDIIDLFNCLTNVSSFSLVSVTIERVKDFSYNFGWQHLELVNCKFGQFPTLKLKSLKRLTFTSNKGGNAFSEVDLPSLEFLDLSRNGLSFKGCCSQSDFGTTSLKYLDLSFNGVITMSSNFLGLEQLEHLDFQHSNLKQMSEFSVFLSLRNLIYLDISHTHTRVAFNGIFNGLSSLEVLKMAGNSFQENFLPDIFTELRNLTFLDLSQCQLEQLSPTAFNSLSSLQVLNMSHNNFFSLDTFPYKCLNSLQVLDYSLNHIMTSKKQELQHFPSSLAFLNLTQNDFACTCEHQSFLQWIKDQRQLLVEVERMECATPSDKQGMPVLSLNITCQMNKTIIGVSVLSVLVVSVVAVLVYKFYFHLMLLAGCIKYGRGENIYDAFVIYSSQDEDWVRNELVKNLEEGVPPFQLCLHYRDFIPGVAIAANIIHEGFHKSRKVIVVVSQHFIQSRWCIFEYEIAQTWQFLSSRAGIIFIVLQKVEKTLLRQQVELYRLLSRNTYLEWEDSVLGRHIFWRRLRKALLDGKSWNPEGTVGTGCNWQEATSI
# T2 sequence (Q9Y6Y9 17-160 partner limits assumed): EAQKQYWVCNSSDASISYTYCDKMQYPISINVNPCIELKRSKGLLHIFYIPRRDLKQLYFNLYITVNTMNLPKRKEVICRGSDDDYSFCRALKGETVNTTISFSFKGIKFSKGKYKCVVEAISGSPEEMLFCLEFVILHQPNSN
# Experimental: TLR4 receptor activation was assayed using the HEK-Blue TLR4 reporter cell line (InvivoGen). In this cell line, TLR4 and downstream NFκB signalling induces expression and secretion of alkaline phosphatase that can be quantified via colorimetric assay. HEK-Blue cells were treated for 24 hours with 19 nM of NAMPTcif or PIGF-NAMPTcif plus 5 ug/ml polymyxin B to ensure no TLR4 activation by any trace amounts of endotoxin. TLR4 activity was reported as the equivalent amount of activation by bacterial lipopolysaccharides (LPS), thus a standard curve was generated by serial dilutions of LPS from 0.01 to 20 ng/ml. Detection of alkaline phosphatase activity was performed using a QUANTI-Blue kit (InvivoGen) according to manufacturer's instructions and plates were read using a Synergy H1 plate reader (BioTek). Data were presented as equivalent LPS concentration in ng/ml. A one-way ANOVA with Dunnett's multiple comparisons test was performed to determine statistical significance.
# [3] = test system: needle-stab muscle injury in zebrafish larvae; experiment: Larval zebrafish muscle injury and EdU pulse-chase; type: in vivo; details: 57 nM in Ringer's solution immediately after injury at 4 dpf; EdU at 2 dpi
# Experimental: Zebrafish larvae (4 dpf) were anaesthetized in 0.01% tricaine (MS-222) (Sigma-Aldrich) in Ringer's solution. Needle-stab injury was carried out in the dorsal myotome, consisting in a single 30-gauge needle puncture that generates an extensive injury with many damaged muscle fibres. Nampt fragment treatments were carried out by incubating 4 dpf needle-stab-injured larvae in 57 nM Nampt in Ringer's solution immediately after injury. Needle-stab-injured larvae at 6 dpf (2 dpi) were transferred into Ringer's solution containing 50 μg ml-1 EdU (Thermo Fisher Scientific) for 1 h and chased for a further 1.5 h before fixation. Samples were developed using the Click-iT EdU Alexa Fluor 647 imaging Kit (Thermo Fisher Scientific) following the manufacturer's protocol, followed by a phalloidin immunostaining (Thermo Fisher Scientific). EdU+ cells in a region encompassing two myotomes on either side of the injury were quantified as the number of EdU+ cells outside the injury region. EdU+ cells in the caudal haematopoietic tissue were excluded from this analysis. Statistical analysis has been conducted using Two-way ANOVA with Tuckey's multiple comparison test.
# [4] = test system: Human primary endothelial cells derived from umbilical vein; experiment: Human primary endothelial cell proliferation, CyQuant; type: cell-based; details: 20 nM; 48 hours
# Experimental: as §1, with “9.” for “8.”, “endothelial” for “satellite”, “cells derived from umbilical vein” for “cells”, “hours.” for “hours. The media contained the growth factors IGF-1 and FGF-2 as well.”, “10%” for “20%”, “n=6” for “n=6-10”
# Similarly, the inventors next investigated the activity of full length NAMPT, NAMPT402-491 and NAMPT422-491 on human endothelial cell proliferation. Human endothelial cells were derived from umbilical vein and treated with 20 nM full length NAMPT (NAMPT) or NAMPT variants for 48 hours.
molecule,measurement,setting,value
B1,"cell proliferation, percentage increase vs PBS-treated control","[1]; 10 nM, compared with full length NAMPT, listed as cif",stimulates satellite cell proliferation in a dose-dependent manner
same,"cell proliferation, percentage increase vs PBS-treated control","[1]; 10 nM, compared with full length NAMPT, listed as hNAMPTcif",enhanced stimulated satellite cell proliferation compared to full length hNAMPT
same,"cell proliferation, percentage increase vs PBS-treated control","[1]; 20 nM, compared with full-length NAMPT",enhanced cellular proliferation compared to full-length NAMPT
same,"satellite cell proliferation, percentage increase vs PBS-treated control",[2],increased satellite cell proliferation compared to full length NAMPT
same,inhibition of NAMPT binding to CCR5,recombinant mouse CCR5,inhibits the binding of NAMPT to CCR5
same,TLR4 activation (equivalent LPS concentration),TLR4,does not induce TLR4 activity compared to full length NAMPT; also recorded: abrogated TLR4 activity
same,cell proliferation (EdU-positive cells) within the injury zone,[3],significant increase in cell proliferation within the injury zone
same,"endothelial cell proliferation, percentage increase vs PBS-treated control",[4],increased endothelial cell proliferation compared to full length NAMPT and NAMPT422-491
